Results published in article PMC4564341.

Columns and labels:
[1] = molecular target: Mouse CBP KIX (residues 586-683) (mouse) (UniProt P45481); test: NMR titration
[2] = molecular target: Mouse CBP KIX (residues 586-683) (mouse) (UniProt P45481); test: ITC
[3] = molecular target: CREB pKID αB peptide pKID αB helix (UniProt P16220); details: cited from earlier work

Kd [1]	Kd2 (site 2, two-site model) [2]	Substance	Kd [3]
21 µM	370 µM	CRTC1-MAML2 TAD1 polypeptide spanning residues 150-190	–
–	–	CBP KIX (from UniProt P45481)	80 µM
